According to paper PMC8834548, “Epiregulin as an Alternative Ligand for Leptin Receptor Alleviates Glucose Intolerance without Change in Obesity” (Cells, 2022):

T1: mouse recombinant leptin receptor (LepR) protein (mouse, UniProt P48356 22-839)
T1 construct: leptin receptor, mouse, recombinant, R&D systems 497-LR/CF; also called recombinant LepR; source: bought: R&D systems, 497-LR/CF
T1 sequence (looked up): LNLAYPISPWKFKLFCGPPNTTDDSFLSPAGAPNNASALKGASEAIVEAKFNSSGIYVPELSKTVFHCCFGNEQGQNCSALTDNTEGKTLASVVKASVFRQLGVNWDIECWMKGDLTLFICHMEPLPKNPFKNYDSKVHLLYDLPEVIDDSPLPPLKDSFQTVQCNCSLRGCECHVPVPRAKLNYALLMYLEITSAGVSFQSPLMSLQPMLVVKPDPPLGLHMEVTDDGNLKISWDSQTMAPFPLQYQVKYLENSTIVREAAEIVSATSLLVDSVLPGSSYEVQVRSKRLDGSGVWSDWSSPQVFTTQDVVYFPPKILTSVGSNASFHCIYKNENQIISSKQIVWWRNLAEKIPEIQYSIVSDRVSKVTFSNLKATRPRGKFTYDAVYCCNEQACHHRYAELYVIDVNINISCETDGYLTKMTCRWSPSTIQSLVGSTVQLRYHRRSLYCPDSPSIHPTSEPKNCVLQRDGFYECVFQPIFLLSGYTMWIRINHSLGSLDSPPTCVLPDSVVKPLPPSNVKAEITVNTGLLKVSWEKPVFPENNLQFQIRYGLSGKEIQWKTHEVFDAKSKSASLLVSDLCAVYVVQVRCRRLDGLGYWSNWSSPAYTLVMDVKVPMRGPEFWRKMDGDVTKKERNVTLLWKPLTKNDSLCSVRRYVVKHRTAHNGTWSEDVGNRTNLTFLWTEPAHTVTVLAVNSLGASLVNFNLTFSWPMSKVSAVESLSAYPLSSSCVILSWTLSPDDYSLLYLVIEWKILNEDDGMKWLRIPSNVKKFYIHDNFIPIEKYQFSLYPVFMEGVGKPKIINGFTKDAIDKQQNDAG


Experiments:
[1] = biological target: leptin receptor (LepR), endogenous in mouse adipose tissue (mouse (endogenous in Lep^ob adipose tissue)) (UniProt P48356)
[2] = biological target: mouse recombinant leptin receptor (LepR) protein (mouse) (UniProt P48356); test: quartz crystal microbalance with dissipation (QCM-D); LepR (1.6 pM in PBS) laid as a monolayer on a gold quartz sensor, then mouse leptin or mouse EREG (1.6 fM) added; PBS pH 7.1-7.5, 25 C, flow 50 uL/min; frequency, dissipation and modelled film thickness
[3] = biological target: T1, mouse recombinant leptin receptor …; test: as above; details: both partners purified

| FD-glucose uptake in 3T3-L1 preadipocytes against the concentration of mouse EREG [1] | thickness of the LepR film after EREG was added (23 nm before) [2] | binding result [3] | Molecule |
| --- | --- | --- | --- |
| 26 nM | 20 nm |  | mouse recombinant EREG (ligand) |
|  |  | binds | mouse leptin (ligand, UniProt P41160 22-167, looked up, leptin, mouse, Crystal Chem 90030-B; source: bought: Crystal Chem, 90030-B) VPIQKVQDDTKTLIKTIVTRINDISHTQSVSAKQRVTGLDFIPGLHPILSLSKMDQTLAVYQQVLTSLPSQNVLQIANDLENLRDLLHLLAFSKSCSLPQTSGLQKPESLDGVLEASLYSTEVVALSRLQGSLQDILQQLDVSPEC |
